# Reference: patent US20240024520A1 (UCB, published 2024)
# B1: K92chemFE F26A (peptide)
# peptide: TCPEGWSECGVAIYGYECGRWGCGHALNSGPNISPYVST
# B2: K92chemFE W6A (peptide)
# peptide: TCPEGASECGVAIYGYECGRWGCGHFLNSGPNISPYVST
# B3: K92chemFE W21A (peptide)
# peptide: TCPEGWSECGVAIYGYECGRAGCGHFLNSGPNISPYVST
# B4: K92chemFE W21H (peptide)
# peptide: TCPEGWSECGVAIYGYECGRHGCGHFLNSGPNISPYVST
# B5: K92chemFE Y14A (peptide)
# peptide: TCPEGWSECGVAIAGYECGRWGCGHFLNSGPNISPYVST
# B6: K92chemFE Y16A (peptide)
# peptide: TCPEGWSECGVAIYGAECGRWGCGHFLNSGPNISPYVST
# Biological target: T1, human complement component C5 (human, UniProt P01031 19-673; P01031 678-1676)
# T1 construct: mature; Mature C5 is a disulphide-linked beta and alpha chain cut from one precursor; Terbium-labelled in the FRET assays, biotinylated in part of the phage ELISA; also called human C5; C5-Tb
# Assay: SPR multi-cycle kinetics, human C5 immobilised, mean of n=3
# T1 sequence (P01031 19-673 limits assumed, chain 1 of 2): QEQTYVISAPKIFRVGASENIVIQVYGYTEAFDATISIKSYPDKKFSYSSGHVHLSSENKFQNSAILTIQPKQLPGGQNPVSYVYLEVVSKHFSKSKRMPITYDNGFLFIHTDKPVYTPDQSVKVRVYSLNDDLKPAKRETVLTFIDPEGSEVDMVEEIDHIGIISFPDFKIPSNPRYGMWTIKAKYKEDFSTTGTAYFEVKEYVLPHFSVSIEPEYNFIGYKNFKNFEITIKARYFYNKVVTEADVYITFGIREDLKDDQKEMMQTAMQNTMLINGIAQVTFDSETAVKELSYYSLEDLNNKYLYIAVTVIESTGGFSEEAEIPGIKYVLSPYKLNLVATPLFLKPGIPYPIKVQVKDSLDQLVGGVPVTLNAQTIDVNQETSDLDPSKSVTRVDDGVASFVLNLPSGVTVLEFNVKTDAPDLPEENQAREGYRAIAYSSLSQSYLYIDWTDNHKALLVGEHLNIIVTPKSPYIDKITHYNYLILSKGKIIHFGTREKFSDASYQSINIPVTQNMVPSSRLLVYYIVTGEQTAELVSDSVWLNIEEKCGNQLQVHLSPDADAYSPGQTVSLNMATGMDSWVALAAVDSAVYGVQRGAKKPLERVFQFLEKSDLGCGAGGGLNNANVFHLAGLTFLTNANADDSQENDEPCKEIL
# T1 sequence (P01031 678-1676 limits assumed, chain 2 of 2): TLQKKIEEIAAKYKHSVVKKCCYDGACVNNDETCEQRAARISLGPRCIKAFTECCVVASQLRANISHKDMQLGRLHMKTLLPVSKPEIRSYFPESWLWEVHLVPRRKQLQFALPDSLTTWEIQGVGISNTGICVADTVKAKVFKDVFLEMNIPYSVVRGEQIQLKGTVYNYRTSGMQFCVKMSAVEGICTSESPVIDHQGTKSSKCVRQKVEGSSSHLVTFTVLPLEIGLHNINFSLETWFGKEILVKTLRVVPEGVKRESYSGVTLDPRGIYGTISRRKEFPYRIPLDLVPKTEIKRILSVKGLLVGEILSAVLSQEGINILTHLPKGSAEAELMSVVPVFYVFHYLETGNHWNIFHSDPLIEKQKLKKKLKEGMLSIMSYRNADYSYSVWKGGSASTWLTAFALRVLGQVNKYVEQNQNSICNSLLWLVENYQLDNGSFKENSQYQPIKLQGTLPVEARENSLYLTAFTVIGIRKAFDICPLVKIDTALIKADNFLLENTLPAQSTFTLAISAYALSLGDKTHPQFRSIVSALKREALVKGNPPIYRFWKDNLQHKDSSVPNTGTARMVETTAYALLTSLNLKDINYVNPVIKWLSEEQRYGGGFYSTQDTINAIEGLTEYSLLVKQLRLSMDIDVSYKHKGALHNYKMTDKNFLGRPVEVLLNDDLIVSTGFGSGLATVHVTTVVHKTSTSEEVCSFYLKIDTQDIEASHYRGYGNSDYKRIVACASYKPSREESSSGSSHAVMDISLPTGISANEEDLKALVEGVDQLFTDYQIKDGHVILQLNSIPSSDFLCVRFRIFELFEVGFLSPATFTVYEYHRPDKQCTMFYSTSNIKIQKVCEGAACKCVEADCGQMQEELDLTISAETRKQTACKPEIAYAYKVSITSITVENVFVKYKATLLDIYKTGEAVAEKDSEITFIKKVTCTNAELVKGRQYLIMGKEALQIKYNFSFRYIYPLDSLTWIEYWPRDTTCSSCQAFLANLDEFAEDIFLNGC
Binder,Kd [nM],koff [s⁻¹],kon [M⁻¹ s⁻¹]
B1,18.8,0.00328,184000
B2,219,0.00157,7980
B3,497,0.00848,17400
B4,1.48,0.000612,425000
B5,3.62,0.0001,27200
B6,221,0.786,
